Measured values: patent publication US20190062705A1 (WAYNE STATE UNIVERSITY, published 2019)

T1: autoimmune regulator (AIRE), mouse, endogenous in B cells (mouse, UniProt Q9Z0E3 1-552, limits assumed)
T1 construct: Endogenous protein in mouse splenic B cells and CH12 cells
T1 sequence: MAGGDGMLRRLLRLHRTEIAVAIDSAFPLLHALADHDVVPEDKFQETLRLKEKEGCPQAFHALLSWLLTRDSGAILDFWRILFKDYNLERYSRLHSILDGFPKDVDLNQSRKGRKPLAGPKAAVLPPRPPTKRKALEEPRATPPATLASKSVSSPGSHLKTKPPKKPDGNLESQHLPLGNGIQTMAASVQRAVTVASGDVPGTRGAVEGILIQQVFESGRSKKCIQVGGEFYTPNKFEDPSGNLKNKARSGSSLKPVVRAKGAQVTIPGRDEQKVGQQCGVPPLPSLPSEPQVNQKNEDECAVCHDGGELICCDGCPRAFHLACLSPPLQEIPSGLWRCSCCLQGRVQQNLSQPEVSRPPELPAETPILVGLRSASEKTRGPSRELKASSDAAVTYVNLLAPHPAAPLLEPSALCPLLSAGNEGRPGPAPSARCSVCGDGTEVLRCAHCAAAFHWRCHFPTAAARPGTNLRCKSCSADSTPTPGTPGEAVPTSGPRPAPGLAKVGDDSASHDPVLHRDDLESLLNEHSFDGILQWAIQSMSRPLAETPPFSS

T2: Bcl10, endogenous in the human Ramos B cell line (human, UniProt O95999 1-233)
T2 sequence (looked up): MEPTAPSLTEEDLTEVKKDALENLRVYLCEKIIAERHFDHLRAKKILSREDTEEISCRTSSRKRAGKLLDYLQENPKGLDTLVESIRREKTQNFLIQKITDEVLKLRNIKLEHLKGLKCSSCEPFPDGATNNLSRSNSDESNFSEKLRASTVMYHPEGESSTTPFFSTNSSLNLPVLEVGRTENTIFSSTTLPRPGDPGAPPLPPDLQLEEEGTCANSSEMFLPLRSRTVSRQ


Assays:
[1] = target: T1, autoimmune regulator (AIRE), mouse, …; assay: co-IP, mouse splenic B cell lysates
[2] = target: T2, Bcl10, endogenous in the human Ramos B …; assay: co-IP in Ramos B cells unstimulated or stimulated with TNF for 24 h

Binder | binding result [1] | binding result [2]
activation-induced cytidine deaminase (AID), mouse, endogenous in B cells (enzyme, UniProt Q9WVE0 1-198, looked up, Endogenous protein in mouse splenic B cells and CH12 cells) MDSLLMKQKKFLYHFKNVRWAKGRHETYLCYVVKRRDSATSCSLDFGHLRNKSGCHVELLFLRYISDWDLDPGRCYRVTWFTSWSPCYDCARHVAEFLRWNPNLSLRIFTARLYFCEDRKAEPEGLRRLHRAGVQIGIMTFKDYFYCWNTFVENRERTFKAWEGLHENSVRLTRQLRRILLPLYEVDDLRDAFRMLGF | binds | –
activation-induced cytidine deaminase (AID), human, endogenous in B cells (enzyme, Endogenous protein in lysates of human tonsillar B cells and Ramos B cells) MDSLLMNRRKFLYQFKNVRWAKGRRETYLCYVVKRRDSATSFSLDFGYLRNKNGCHVELLFLRYISDWDLDPGRCYRVTWFTSWSPCYDCARHVADFLRGNPNLSLRIFTARLYFCEDRKAEPEGLRRLHRAGVQIAIMTFKDYFYCWNTFVENHERTFKAWEGLHENSVRLPRQLRRILLPLYEVDDLRDAFRTWGR | – | no binding
